# Test results published in PMC5425150.
# B1: Recombinant human BMP2 (wildtype) (ligand)
# chain: QAKHKQRKRLKSSCKRHPLYVDFSDVGWNDWIVAPPGYHAFYCHGECPFPLADHLNSTNHAIVQTLVNSVNSKIPKACCVPTELSAISMLYLDENEKVVLKNYQDMVVEGCGCR
# Target: type II receptors on the cell surface of INA6 cells (human (endogenous in INA6))
row,Molecule,"concentration for 50% rescue (IC50) from inhibition of INA6 cell proliferation induced by 10 nM Activin A, WST-1; competes with Activin A for the type II receptors [nM]"
1,BMP2-L51PL100KN102D (ligand),62.5
2,B1,250
